The results in this text go back to PMC5753033.

As a reminder, the Kd is the constant that tells how readily two partners part at equilibrium. Higher therefore signals weaker binding.

For assay [1], the target named is Alexa488-labeled WAVE1 PWCA (FRET donor construct) (human) (UniProt Q92558). Briefly: FRET or BRET; competition: 7.5 nM Alexa488-WAVE1 variant premixed with 175 nM LatB-stabilized Atto540Q-actin, profilin titrated; room temperature; 20 mM HEPES pH 7.0, 100 mM KCl. On the technique in general: Bioluminescence resonance energy transfer reports proximity on the nanometre scale.

For assay [2] the target is unchanged. As to the kind of experiment: FRET or BRET; 7.5 nM Alexa488-labeled WAVE1 variant titrated with LatB-stabilized Atto540Q-actin; donor quenching; room temperature; 20 mM HEPES pH 7.0, 100 mM KCl, 1.5 mM MgCl2, 1 mM EGTA, 1 mM ATP; single site binding curve.
Assay [3] concerns the target Alexa488-labeled WAVE1 WCA (human). Described as above.
The target in a further assay is WAVE1 PRD[A] (human) (UniProt Q92558). Briefly: AUC; sedimentation equilibrium; dye-labeled WAVE1 PRD variant with an excess of profilin (for PRD[B] 91.2, 44.8 and 21.7 μM); three speeds; 20°C; 25 mM HEPES pH 7.0, 50 mM KCl, 1 mM MgCl2, 1 mM EGTA, 0.5 mM TCEP; two-site independent model with one site fixed to the non-specific affinity.
Another assay concerns the target WAVE1 PRD[B] (human) (UniProt Q92558). The assay is described as above.
In a further assay the target is WAVE1 PRD[C] (human) (UniProt Q92558). Described as above.
In the next assay the target is WAVE1 PRD[D] (human) (UniProt Q92558). Described as above.
A further assay deals with WAVE1 PRD[E] (human) (UniProt Q92558). The description is as above.
In the next assay the target is WAVE1 PRD[F] (human) (UniProt Q92558). The description is as above.

Take “Atto540Q-labeled actin monomers (Acanthamoeba castellanii), Latrunculin B-stabilized (natural protein)”: in assay [1], the fraction of WH2 domains that contact actin at high profilin is above 35% and the residual fluorescence quenching at the highest profilin concentrations was above 30%. Also, the Kd in assay [2] was 0.021 µM. This substance also had a Kd in [3] of 0.061 µM.

As for “Human profilin 1 (from UniProt P07737 1-140) (natural protein)”, the Kd with WAVE1 PRD[A] (human) was above 10 µM; in the assay with WAVE1 PRD[B] (human), 2 µM; in the assay with WAVE1 PRD[C] (human), above 10 µM; with WAVE1 PRD[D] (human), above 10 µM; with WAVE1 PRD[E] (human) it was above 10 µM; in the assay with WAVE1 PRD[F] (human), 4 µM.
